The record followed here is the DeepSol protein solubility set.

This data set is described as follows: soluble on expression in E. coli; label from the status in PepcDB or PDB records.
On to “GPGSMFVEDKGLISEANLRALHVGTLKLHLFLQEWILPVSFSEKYGYKKEVLEEIIERYGSGSAAEARWTFEQLLGECEVPGQISWLEEHISEDIPYFYIADLFDSWCNLHRNLFVCSADAHETAKRSDDRFESELLCKGVIEKAISGVLPYDTAVRALCILAIGCRTNTQFMLKTIKPDFIINRYKLYTDDLAQPIDGNTDVTPLAEVNAATIGLLNALNTELQEQEKLKLWKSSTARKLPLLMQLNATPWCDSVDSLRRGLKGITSNNAATLLEEATQYFRCSELSK”, for which the “soluble on expression in E. coli” value is “not soluble”.
Consider “MSLEENDFDAIYIGNSKSMIKDYRGFVFTMRELREKFPNAVLITDLEPFFYPLAVYLGIDAFDIRSLKIYSYEGLGFTQFSPIIWDEPKEDPVEYAKKIIRLIRIAIHEGKLRYLVENFLPTSMNAGILRIADRENIEYLEKYTPVDDKTVVFISDYSMTRPEVYRWAKRVRERFEPPKDIELLLILPCSAKKPYSRSRSHTLYRSAVKEALGEKMHRVHELIVTSPYGVVPREWEWIAKYDIVVTGHWSEREVRLAGELLADVLEKYPDIPIIAHVEGGYREAVKLAMELSGRDVIFTAKGNSTTSRESLANLTKTLKEFDVRDVDKEYRRYRFYENIRKIFDFYFGLNAGYAVLPERAQVVGSKMLRLIVDNQQTGTFQEGVISVTPWGMQRIYDELHSYWVEIDFDVRGDIFAAGVGSADEKIRPNDWVGVVRDGKVVAVGRAVLSGEEMVKAKRGVAVKVKKKAKEGHHHHHH”, for which the “soluble on expression in E. coli” value is on record as “not soluble”.
Then “MGSDKIHHHHHHMSQINASASGTYAFDDQFKVNRLGYGTMQLTGEGTWGPYDDPNNAVSVIKKAVDLGINFFDTADSYGPWFADRYLAEGLKSASNRDEIFISDKVGQTRQGPGVWTPHGEPNYLRQQVEVSLMTLGIDHEDLLFLHRIDSHFSVAEQVGELKKLQDEGKIKHIGLSQVTVGQIKEAQKYAKIDAVENLYNVSDHRDDDVLDYAESQHMAFVPWFPLNTEKLTGANSPLAKIANKYKASPAQIALAWLLKRSGNVLPIPGTSSVAHLEDNVAAASIKLSDDDFKAITNLGVSNR”, with “not soluble”; and “SNAMADWVTGKVTKVQNWTDALFSLTVHAPINPFTAGQFTKLGLEIDGERVQRAYSYVNAPDNPNLEFYLVTVPQGKLSPRLAALKPGDEVQVVSDASGFFVLDEVPDCETLWMLATGTAIGPYLSILQYGQDVARFKNLVLVHAARFAADLSYLPLMLELQQRYEGKLRIQTVVSRENVPGSLTGRVPALIENGELEKAVGLPMDKETSHVMLCGNPQMVRDTQQLLKETRQMTKHLRRRPGHMTAEHYW”, with “soluble”.
Then “MDEKKLFENFQLTFGRMISPFEIEDIQKWIHEDNMPIEVVNLALREAVENNKISWKYINKILVDWYKSGDTTVEKVRDRLQRFDDSKKQRSVTTSNVPSWSNPDYKEPDLEEFALGSMDGIEDGSGDF”, with “not soluble”.
The value for “MINARGETMARFTVVIPYYQKQHGVLGRALASVFAQTYQDFDLVIVDDESPYPIDQELAEISQEQKDRIVVIKQANAGPGGARNTGLDHVPDGTDYVAFLDSDDMWTPDHLRNAAFALNTYGGECYWASMQASDEFYYHFAISELEKNEGAARLSEKPLVIELPDLASVMLRNWSFLHLSCMVIGRPLFEKIRFDPALRLAAEDVLFFCDSILASKRTLLCDDAGAMRGMGVNIFHSIDNTSPEFLRQQFNTWVALDTLEGRFSRRPADVASIASYKNTARKQALWSQAGNLKRRRAPQFGLLFKWAMRDPALLRAAFELGAGKIVRSRLEHHHHHH” was “not soluble”; that for “MSIEVIAVRLTKGMDLKLSLAKLVAEHDIKAGSIASCVGCISDLNLRLAGAESTLTKREPFEIVSVMGTLTPEHQHVHISVSDREGRVWGGHLLEGTVIDTTAELIIHSYSELEFTRAMDDSTGYTELQVNPSKLEHHHHHH” was “not soluble”; that for “MKLTIHEIAQVVGAKNDISIFEDTQLEKAEFDSRLIGTGDLFVPLKGARDGHDFIETAFENGAAVTLSEKEVSNHPYILVDDVLTAFQSLASYYLEKTTVDVFAVTGSNGKTTTKDMLAHLLSTRYKTYKTQGNYNNEIGLPYTVLHMPEGTEKLVLEMGQDHLGDIHLLSELARPKTAIVTLVGEAHLAFFKDRSEIAKGKMQIADGMASGSLLLAPADPIVEDYLPIDKKVVRFGQGAELEITDLVERKDSLTFKANFLEQALDLPVTGKYNATNAMIASYVALQEGVSEEQIRLAFQHLELTRNRTEWKKAANGADILSDVYNANPTAMKLILETFSAIPANEGGKKIAVLADMKELGDQSVQLHNQMILSLSPDVLDIVIFYGEDIAQLAQLASQMFPIGHVYYFKKTEDQDQFEDLVKQVKESLGAHDQILLKGSNSMNLAKLVESLEN” was “soluble”.
Take “RSLIAGYDPLILDVSHGFNISEFARIANTLDDTTYTSLTPMQLLKAMDTLEGIESLRRFAAILVGGAPLRADDLRAAKELGINVVTTYGSSETSGGCVYNGRPIPGAKVRVV”: the “soluble on expression in E. coli” value is reported as “not soluble”.
Take “MLPAEREQFIITFLKTNKKATIHDLALEFNVHEATIRRDLNKLEQYNQIKRTHGGVVLNDSEVWDELNFDDRETSYYDEKVAIGLKAAEFVENGDTLFIDSGSTTIHFARALTQKSNLTIITNDIHIASILKSTANQIIVTGGILYQDNYLLNGMITNETLKLFNPSKLFLATPAIDLEKGITHFNDTLASTKIQMVKQAKAVYVLTDSSKFDKVALYNVCSSDTIDVLITDQTNKNIDWQAYDNHFKHLITVHAEAHPELEHHHHHH”: the “soluble on expression in E. coli” value was “soluble”.
Then “MGSDKIHHHHHHMECVFGIDVSKENANVAVLVDNVVIKQFKIGLDRLGFSLLSDELNSFNAPLIIYEATAMYSRRLRAFLQRDGWKYTELNPLAAKKVMEEFRHTKTDALDAVGLARAMIKNHFRPTYQESPVYTELHDLERTYQQFNKDIVTNKNRLHRALQLTFPEIEHFMSSTDGVLYWHIVQRFPHPAIVLSHEENELTEIILTETSKKIGLKRAMKLANRLLALAQNSAPAKEPQSHAVRAVIALAKEVERINQLKAQIIVEMTTLGENLSEVPLLVSIPGIGIKTALCLIAELGDVRRFHSANAINAYIGIDLIRYESGQYEAKMHIRKRGNPYVRKILYRAILNIISVSQYQPTLISANYKRKKQSAQSHGTKKIAIAAMSQFNRLMHHLILNNELYDSTTFMPE”, with “not soluble”; and “MGSDKIHHHHHHMNSIVNDLNRALAQHLLVNVYQTNQEVVYTGYVTTVSDTGIILATYDDYGIPDGAVFLDLTAIDEVEFSSDDLDNMAFRIQTAQDEQFVQAGGLTLQFDGHRDLKRQVLSHAWVDHLVLMLVLKDDEHFYEGIVTSVAAEQVSLQLLNKFDYTDQPLLTLTPKDIEVIEFQGQELTLQGIALPHLQKLSHVAPTTVTDADQFVPTLQQLVGKEPLVALVPKHNRELFFVGRINTVTADGVIMNLLDMTGQFGGYTLMRLSELHEIVLKSDYLQTMRLFALLNRARQQPIQPVLNDERLFDATVDQFGARISQAAAFRTIIRLKLHDGTDLLGFPSQVGGQRFIFHEIDDQQVDQVGQVYRLADVDEVAFGYLDAYLVERQLRVEGDL”, with “not soluble”.
Then “GPGSMTGRTSSVSENHLGFSAEGGVVNYALLQPHRTEAERRPLAPSEVAQHLMASAAAASGATHSATGGSGAHTMRQCTPKELATRSSKVVTLYDLAGHERYLKTTVLGMTRNMPDYACIVISANNGIQRMTKEHLALCLALKLPFFIVVTRIDSTPPNIHDETLSNIHKLLKIPTVRKLSYPVRRHDEVTLAAKNCAMIALPRSSKSATLPVLASLTYCNSLTYSRLGRTGGRRATCQRR”, with “not soluble”.
As for “DTVANASGPLMVEIVKTPGSALGISLTTTSLRNKSVITIDRIKPASVVDRSGALHPGDHILSIDGTSMEHCSLLEATKLLASISEKVRLEILPVPQSQRPLRPS”, the “soluble on expression in E. coli” value was “soluble”.
Then “MSLKKTILCFGEALIDMLAQPLVKKGMPRAFLQCAGGAPANVAVAVARLGGAVQFVGMLGSDMFGDFLFDSFAEAGVVTDGIVRTSTAKTALAFVALDAHGERSFSFYRPPAADLLFRVEHFQDASFSDALIFHACSNSMTDADIAEVTFEGMRRAQAAGAIVSFDLNFRPMLWPNGENPASRLWKGLSLADVVKLSSEELDYLANTLAADANAVIQQLWQGRAQLLLVTDAAGPVHWYTRTAGGEVPTFRVQVQDSNAAGDAFVGGMLYTFAQQFDDAAALIDFCHDPESIVSTLRFAAAVGALAVTRQGAFTAMPMLSEVLSLIQEQSEGHHHHHH”, with “soluble”.
